Experimental data: US20230212300A1 (REMD BIOTHERAPEUTICS, published 2023)

T1: human endothelin A receptor (ETAR), tagged, stably expressed on recombinant CHO cells (human, UniProt P25101 21-427)
T1 sequence: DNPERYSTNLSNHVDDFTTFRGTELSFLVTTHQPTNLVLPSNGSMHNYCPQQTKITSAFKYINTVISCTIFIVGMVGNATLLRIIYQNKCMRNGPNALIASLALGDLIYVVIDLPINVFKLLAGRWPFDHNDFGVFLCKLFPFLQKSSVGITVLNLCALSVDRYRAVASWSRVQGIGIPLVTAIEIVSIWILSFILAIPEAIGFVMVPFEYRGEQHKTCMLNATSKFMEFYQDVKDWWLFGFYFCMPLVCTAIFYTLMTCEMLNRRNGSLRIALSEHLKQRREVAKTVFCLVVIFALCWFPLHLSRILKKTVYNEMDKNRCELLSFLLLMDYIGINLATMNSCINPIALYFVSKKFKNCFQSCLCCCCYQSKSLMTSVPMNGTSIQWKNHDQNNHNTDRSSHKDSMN

B1: murine mAb 312A10E5 (antibody, V domains shown)
VH: QIQLVQSGPDLKKPGETVKISCKASGYTFTNYGMSWVKQAPGKGLKWMGWINTYSGESTYADDFKGRFAFSLETSASTAYLQINNLKNEDTATYFCARSLNRDTWFTYWGQGTLVTVSA
VL: QAVVTQESALSTSPGETVTLTCRSITGAVTTSNYANWVQEKPDHLFTGLIGGTNNRAPGVPARFSGSLIGDKAALTITGAQTEDEAIYFCALWYSNHWVFGGGTKLTVL
B2: murine mAb 336D8G9 (antibody, V domains shown)
VH: EVQLQQSGAELVRPGASVKLSCPASGFTIKDYYIHWVKQRPEQGLEWIGRIDPEDGDTEYAPKFQGKATMTADTSSNTAYLHLSSLTSEDTAVYYCTSNWYSNSYWGQGTTLTVSS
VL: DVVMTQTPLSLPVSLGDQASISCRSSQSLVHSNGNTYLHWYLQKPGQSPKVLIYKVSNRFSGVPDRFSGSGSGTDFTLKISRVEAEDLGVYFCSQSTHVPYTFGGGTKLEIK

Target: T1, human endothelin A receptor (ETAR), …
Test: cell-based or functional assay

| Binder | HuET AR Binding IC50 (nM); IP1 assay (IP-one-Gq kit, HTRF 665/620) with 25.0 nM ET-1 |
| --- | --- |
| B1 | 0.0891 nM |
| B2 | 0.0607 nM |
